Test results taken from the supplement of paper PMC9170038.

Test system: MS2 coat protein
Assay: apparent KD of MS2 coat protein; higher = weaker reporter binding
Conditions: Eterna round: R107
How it was run: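 Illumina sequencing clusters served as templates for on-chip transcription of the designed RNA switches. SNAP-549-labelled MS2 coat protein was then titrated in twofold steps from 0.7 or 1.5 nM to 3 µM, allowing 0.8–1.5 h per step at first and 10–20 min per step later. The buffer held 100 mM Tris-HCl pH 7.5, 80 mM KCl and 4 mM MgCl2, without or with constant ligand. Apparent KD is the median per design of normalised cluster binding-curve fits.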

[1] = input ligand: theophylline 20 uM
[2] = input ligand: tryptophan 2.4 mM
[3] = input ligand: theophylline 2 mM

Row | Sequence | apparent KD of MS2 coat protein (input ligand: arginine 13.2 mM) [µM] | apparent KD of MS2 coat protein [1] [µM] | apparent KD of MS2 coat protein [2] [µM] | apparent KD of MS2 coat protein (input ligand: none) [µM] | apparent KD of MS2 coat protein [3] [µM]
1 | UGACAUUGCUCAGAUACCAGACAUGAGGAUCACCCAUGUACCGAGGUACCCGAAAGGAAUGUCCCUUGGCAGCUGAGCAAUGUCU [TheoBX 4 #MS2Left #Theo2 #StaticStem] | 0.0129 | 0.0155 | 0.011 |  | 
2 | UGAUCCUAGACUGAUACCAGUCAUGAGUACAUGAGGAUCACCCAUGUCCAGGGACUCAAUGACCCUUGGCAGCAGAACCUAGUUC [Theo B SS t7] | 0.155 | 0.414 | 0.389 |  | 
3 | UGAUUGAACGGAAGGAGCGUGUAAGAACAAGAACAUGAGGAUCACCCAUGUAUUAAUUUAACACAGGUAGGUCGCCGAGAGAUUG [11.D] | 0.016 | 0.0152 | 0.012 | 0.0146 | 0.014
4 | UGCCGAGACGUGGAUUACCCAUGUACAGAAGGAGCGCCCGAAAGGGCAGGUAGGUCGCUGAGGACAUGAGGAUCACCCAUGUCGA | 0.0366 | 0.052 | 0.0433 | 0.0548 | 0.0495
5 | UGCCGAGACGUGGAUUACCCGUGUACCGAAGGAGCGCCCGAAAGGGCAGGUAGGUCGCGGAGGACAUGAGGAUCACCCAUGUUGA | 0.0328 | 0.0437 | 0.0548 | 0.0737 | 0.0968
6 | UGCCUAGACGUGGAUUACCCGUGUACCGAAGGAGCGCCCGAAAGGGCAGGUAGGUCGCGGAGGACAUGAGGAUCACCCAUGUUUG | 0.0448 | 0.123 | 0.0885 | 0.117 | 0.134
7 | UGGAUAAGGGUAAAUAGGAUAAGUACAGAAGGAGCGCGAAUAAACGCAGGUAGGUCGCUGGACAUGAGGAUCACCCAUGUAAAUG [Same State Arginine A GF 22] | 0.0459 | 0.0771 | 0.05 | 0.0488 | 0.0576
8 | UGGCAAGAGGGAAGGAGCGUCAGCUGAGUCACAUGAGGAUCACCCAUGUCGCACAUAGUGUGACAGGUAGGUCGCCCUCUACCCU [Rearian] | 0.0679 | 0.209 | 0.148 | 0.222 | 0.217
9 | UGGCAGGAGUGAUCCUCCUGCCAAGGUGAUACCAGCAUCGAAAGAUGCCCUUGGCAGCACCAACAUGAGGAUCACCCAUGUAAUA [(MT)''-(M)'-(T')-(Theo)-(Ms2)_Design1/22_10] | 0.0341 | 0.177 | 0.104 |  | 
10 | UGGUACAUGGCGGCCGCCACUUCACGUAAAAUAAAAGCGUGAGGAUCACCCAUGCAAUAAGUUGGGAGGACCGGGUCAUGUACCU | 0.311 | 0.633 | 0.244 | 0.287 | 0.387
11 | UGGUGUAGGGUAAAUAGGAUUAGUACAGAAGGAGCGCGAAUAAACGCAGGUAGGUCGCUGGAAUAAACAUGAGGAUCACCCAUGU [Same State Arginine A GF 27] | 0.0174 | 0.0274 | 0.0207 | 0.0192 | 0.0215
12 | UGGUGUAGGGUAAAUAGGAUUAGUACAGAAGGAGCGCGAAUAAACGCAGGUAGGUCGCUGGAAUACAUGAGGAUCACCCAUGUUC [Same State Arginine A GF 25] | 0.0226 | 0.0247 | 0.026 | 0.022 | 0.0267
13 | UGUACAUAAUUAGGUUACCUAUGUACAGAAGGAGCGUCGAUGACGACAGGUAGGUCGCUGUUAACAUGAGGAUCACCCAUGUACA [Arg A Ex t4] | 0.0377 | 0.0462 | 0.0424 | 0.0444 | 0.0573
14 | UGUACCAUGUCGGCCGCCACUCAUGAUAAAUAUGAGGAUCACCCAUAUAGCGUCAAAGACGCUAUGAGGACCGGGACAUGGUACU [TryBS Zipper 2] | 0.0408 | 0.0505 | 0.014 | 0.0413 | 0.0504
15 | UGUACUAUGUGAAGGAGCGAGAAUCCUACAUGAGGAUCACCCAUGUAACAGCGAAAGCUGACUCAGGUAGGUCGCACAUAGUACU [ArgBS - First try] | 0.111 | 0.115 | 0.128 | 0.13 | 0.144
16 | UGUAUGGACUGAAGGAGCGCCUCAAAAUAACAUGAGGAUCACCCAUGUGGCGAAAGCCUUGGGCAGGUAGGUCGCAGUCCAUACU [ArgBX 1 #StaticStem] | 0.062 | 0.0762 | 0.0529 | 0.0499 | 0.0721
17 | UGUAUGGACUGAAGGAGCGCCUCAAAAUAGCAUGAGGAACACCCAUGCAAGGCGAAAGCCGGGCAGGUAGGUCGCAGUCCAUACU [ArgBX 3] | 0.021 | 0.0322 | 0.0226 | 0.0203 | 0.0272
18 | UGUAUGGACUGAAGGAGCGCCUCAAAAUAGCAUGAGGAUCACCCAUGCAAGGCGAAAGCCGGGCAGGUAGGUCGCAGUCCAUACU [ArgBX 3] | 0.0135 | 0.014 | 0.013 |  | 0.0145
19 | UGUAUGGACUGAAGGAGCGGAAGAUAGCUUGAGGAUCACCCAAGUAAUAAGGCGAAAGCCUUCCAGGUAGGUCGCAGUCCAUACU | 0.0314 | 0.0431 | 0.0386 | 0.0352 | 0.038
20 | UGUAUGGACUGAAGGAGCGGUUGAUAACAUGAGCAUCAGCCAUGUAAUAAGGCGAAAGCCAACCAGGUAGGUCGCAGUCCAUACU | 0.00826 | 0.0125 | 0.0148 | 0.00968 | 0.00911

Row | Sequence | apparent KD of MS2 coat protein (input ligand: arginine 13.2 mM) [µM] | apparent KD of MS2 coat protein [1] [µM] | apparent KD of MS2 coat protein [2] [µM] | apparent KD of MS2 coat protein (input ligand: none) [µM] | apparent KD of MS2 coat protein [3] [µM]
21 | UGUAUGUGAUCUGAUACCAGAGUGACGCGAAAGCGAACCUGAGGAUCACCCUGGUAAUAACUCCCUUGGCAGCAGAUCGCAUACU | 0.0731 | 0.0443 | 0.0698 | 0.0611 | 0.0207
22 | UGUAUGUGAUCUGAUACCAGCGUUGAUAACCUGAGGAUCACCCUGGUAAAGGCGAAAGCCCGCCCUUGGCAGCAGAUCGCAUACU | 0.182 | 0.28 | 0.787 | 0.611 | 0.0249
23 | UGUAUGUGAUCUGAUACCAGCUAGCGGAAACGCAAAAGCUUGAGGAUCACCCAAGUGGAAAGCCCUUGGCAGCAGAUCGCAUACU [Denovo 1 #StaticStem #AlternativeMS2] | 0.0175 | 0.0147 | 0.0174 | 0.0151 | 0.00989
24 | UGUAUGUGAUCUGAUACCAGUCCAACUGGUAAAACACGAGGAUCACCCGUGUAAAAUUGGGACCCUUGGCAGCAGAUCGCAUACU | 0.07 | 0.0519 | 0.0879 | 0.0875 | 0.0126
25 | UGUAUGUGAUUUGAUACCAGACCAGCGGGUGUUGCAUGAGGAUCACCCAUGUAGGUUUGGGUCCCUUGGCAGCAAAUCGCAUACU [SS Theo B #24 Ms18] | 0.289 | 0.438 | 0.523 | 0.482 | 0.127
26 | UGUAUGUGAUUUGAUACCAGUCCAACUGGUAAAACAUGAGGAUCACCCAUGUAAAAUUGGGACCCUUGGCAGCAAAUCGCAUACU [SSTheo B #21] | 0.144 | 0.346 | 0.534 |  | 
27 | UGUCAGCGAAAGUUGACAUGUCUUACCGGUCGAGGACCGGUACGGCCGCCACUCGAUCACUCGCACAUGAGGAUCACCCAUGUCG [SS Tryp A #20] | 0.0117 | 0.0145 |  |  | 0.0139
28 | UGUUUGGUGCGCGAGUGUUGGAUAAUUGAUACCAGUGUAGAUGUGCGCCCUUGGCAGCGAAUCCGAACAUGAGGAUCACCCAUGU [5.Z] | 0.0412 | 0.0323 | 0.0295 | 0.0271 | 0.0357
29 | UUAAUCUUGGUUGAAAACAAUUAAGCAGAAGGAGCGUGAUAAAACACAGGUAGGUCGCUGAAGGGAACAUGAGGAUCACCCAUGU [AstrosSSArgA#14] | 0.0254 | 0.0411 | 0.0256 | 0.0266 | 0.0316
30 | UUAGAUUGCCGAAGGAGCGAGAUAGCCUACAUGAGGAUCACCCAUGUAGAAACGGGCUGAUCUCAGGUAGGUCGCGGCAGGUAGC [Soaquatan] | 0.0846 | 0.0274 | 0.0249 | 0.0262 | 0.0258
31 | UUAGUAACGACGGCCGCCACUGAAUUUGAACAUGAGGAUCACCCAUGUAGAGAUCCUAGAAUAAACAGGACCGGGUCUGAUAAUG [Exclusion Tryptophane B GF3] | 0.0808 | 0.139 |  |  | 0.12
32 | UUAUUUAUAAUGGAUACCAGUCGUAUGGCCCGGCAUCCUGACAUGAGGAUCACCCAUGUCGACCCUUGGCAGCUGUUAUGGGUUU [XTheo B #21] | 0.0149 | 0.017 | 0.0138 |  | 
33 | UUCAGACAUGAGGAUCACCCAUGUACUGAAGGAGCGGAUAAAUAUCCAGGUAGGUCGCAGUAUUGAGGGUCUACUUCCAGUCUUA [Rexeesqu] | 0.0117 | 0.0129 | 0.0101 | 0.00936 | 0.0104
34 | UUCCACCUAAAGCGUUGCCCUCGUGAUGAUACCAGUUUCAGCGGUAACCCUUGGCAGCAUCGGACAUGAGGAUCACCCAUGUGGA [theeternabot_exclusion_MS2_Theo_A_47] | 0.0649 | 0.136 | 0.107 |  | 
35 | UUCUACAUGAGGAUCACCCAUGUGGGUGAUACCAGCACUUUUUGGUGCCCUUGGCAGCACAUGAGAAUGCCGUAAAAUCGGCGAU [Ceanteis] | 0.0747 | 0.577 | 0.503 |  | 
36 | UUCUGGACCCGUGAUACCAGAGACAUGAGGAUCACCCAUGUACAUGAGGAUCACCCAUGUCUCCCUUGGCAGCACUGCAGGGAGC [Exclusion Theophylline B GF 14] | 0.0454 | 0.169 | 0.133 |  | 
37 | UUGACAUGAGGAUCACCCAUGUUAGCUGAAGGAGCGAGGUAGUACUCAGGUAGGUCGCAGAGAGCAGAGUUAGUUGUUCUCAUGU [X-ArgiA-ms2@4] | 0.0215 | 0.0285 | 0.0186 | 0.0191 | 0.0233
38 | UUGGGUUUGUGAAGGAGCGGGUAUGUUUUCUAGUGGAUCCUAACAUGAGGAUCACCCAUGUCCCAGGUAGGUCGCGCGGGUUUGG [12.U] | 0.0646 | 0.227 | 0.0818 | 0.117 | 0.0998
39 | UUGUGGUAGGCGCAUACUCAUUUAUACAAGCGAGGACCGGUACGGCCGCCACUCGGAAUAAAACAUGAGGAUCACCCAUGUACCG [theeternabot_exclusion_MS2_Trp_A_50] | 0.0129 | 0.0171 |  |  | 0.0146
40 | UUGUUGUUUGGAAGGAGCGUGUAUGAUUUAGAACAUGAGGAUCACCCAUGUUGGAGGAUAGCACAGGUAGGUCGCCGGGUGGUGG [11.X] | 0.0162 | 0.0236 | 0.015 | 0.0134 | 0.0214
